{"source": "patent US20220381770A1", "key": {"[1]": {"biological_target": "HCMV pp65495-503/HLA-A2-Fc (Human cytomegalovirus)", "assay": "flow cytometry of pMHC-Fc-loaded α-Fc-based T-Plex beads stained with BB7.2"}, "[2]": {"biological_target": "Survivin96-104/HLA-A2-Fc-STag", "assay": "flow cytometry of pMHC-Fc-loaded α-Fc-based T-Plex beads stained with BB7.2"}}}
{"substance": "αHLA-A2 mAb (Clone BB7.2/BioLegend) of IgG2b isotype (antibody)", "values": [{"measurement": "fold MFI against pMHC-pCC-Fc-loaded SAv-based T-Plex beads", "setting": "[1]", "result": 4, "unit": "fold"}, {"measurement": "fold MFI against pMHC-pCC-Fc-loaded SAv-based T-Plex beads", "setting": "[2]", "result": 4, "unit": "fold"}]}
